Experimental data taken from paper PMC4294129 (Drug Design, Development and Therapy, 2015).

Key:
GST-tagged α2A domain = GST-tagged α2A domain (UniProt P17301); assay: ELISA
human platelets = assay: Collagen I-induced platelet aggregation in platelet rich plasma; format: cell-based; conditions: 10 μM, 2 μg/mL collagen I, saline 85%±19%, mean ± SD, four donors

Chain of UniProt P17301 (P17301 30-1181): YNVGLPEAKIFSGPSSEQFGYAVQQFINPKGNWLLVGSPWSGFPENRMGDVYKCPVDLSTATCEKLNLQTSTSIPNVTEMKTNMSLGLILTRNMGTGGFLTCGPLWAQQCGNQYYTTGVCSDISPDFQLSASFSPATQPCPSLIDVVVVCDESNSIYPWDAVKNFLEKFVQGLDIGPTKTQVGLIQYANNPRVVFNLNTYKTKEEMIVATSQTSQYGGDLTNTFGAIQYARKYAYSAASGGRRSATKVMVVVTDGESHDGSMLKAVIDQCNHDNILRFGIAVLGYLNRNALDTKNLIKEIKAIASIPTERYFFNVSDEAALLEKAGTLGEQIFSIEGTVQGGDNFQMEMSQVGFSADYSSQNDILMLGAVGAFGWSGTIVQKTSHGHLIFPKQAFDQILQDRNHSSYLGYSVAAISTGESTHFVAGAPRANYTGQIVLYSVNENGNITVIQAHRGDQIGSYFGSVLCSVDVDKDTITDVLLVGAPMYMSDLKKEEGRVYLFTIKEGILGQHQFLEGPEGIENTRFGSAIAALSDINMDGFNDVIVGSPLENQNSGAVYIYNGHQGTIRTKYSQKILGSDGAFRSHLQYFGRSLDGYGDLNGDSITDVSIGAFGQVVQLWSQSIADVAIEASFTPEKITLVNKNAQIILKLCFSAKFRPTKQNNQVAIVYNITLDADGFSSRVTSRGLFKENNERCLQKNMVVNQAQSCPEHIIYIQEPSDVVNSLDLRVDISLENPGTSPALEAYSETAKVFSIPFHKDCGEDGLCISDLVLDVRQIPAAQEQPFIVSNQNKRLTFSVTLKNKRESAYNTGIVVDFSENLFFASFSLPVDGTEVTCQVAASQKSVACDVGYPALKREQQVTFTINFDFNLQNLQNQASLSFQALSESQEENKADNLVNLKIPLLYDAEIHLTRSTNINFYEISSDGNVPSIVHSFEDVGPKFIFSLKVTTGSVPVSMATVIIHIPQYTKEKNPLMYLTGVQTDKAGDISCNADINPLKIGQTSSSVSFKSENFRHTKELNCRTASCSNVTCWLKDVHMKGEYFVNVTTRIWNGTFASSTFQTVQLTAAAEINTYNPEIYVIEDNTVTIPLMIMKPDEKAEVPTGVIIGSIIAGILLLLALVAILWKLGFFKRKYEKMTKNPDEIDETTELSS

Row | Compound | percent inhibition of GST-α2A binding to collagen I (GST-tagged α2A domain) | platelet aggregation, collagen-induced, in PRP (human platelets)
1 | Vipegitide-PEG2 (peptide) | 30% | –
2 | CC(=O)Oc1cc2c(s1)CCN(C(C(=O)C1CC1)c1ccccc1F)C2 (stereo not drawn) [prasugrel] | – | 34%±18%
3 | Vipegitide (peptide) | 30% | –
